B1: EPB41L3 (parent)
chain: FRFAPNHTKELEDKVIELHKSHRG

Variants of: B1
Assay: protein stability index of a GFP-peptide fusion (GPS, HEK-293T) (PSI 1-6); higher = more stable
Details: c terminus: a fixed tail appended
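Also: lentivirally expressed fusions sorted by FACS into six bins by GFP to DsRed ratio, PSI derived from sequencing read proportions per bin multiplied by bin number.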

Protein stability index, by site and new letter:
N6: T 2.08, Q 2.02, R 2.03, L 2.37, S 2.17, I 1.55, C 1.97, V 1.53, H 2.54, E 3.17, G 2.56, F 1.74, P 2.23, D 2, K 1.92, M 1.83
R2: Y 3.27, V 2.36, S 3.56, W 2.88, T 3.79, Q 3.89
E17: G 1.76, I 2.21, H 2.04, C 1.95, N 2.29, W 2.18, F 2.34, Q 1.55, K 1.72, L 1.67, D 2.18, S 2.12, P 2.43, T 1.86, V 2.55, M 2.5, Y 2.66, A 1.74
P5: T 2.44, D 3.38, I 2.63, N 2.24, M 2.31, Y 1.24, R 2.15, L 2.75, H 2.31, G 1.98, A 2.73, S 1.92, V 2.37, E 3.49, C 2.4, Q 2.07, K 3.47, F 1.24
E12: T 1.36, Y 1.22, W 2.97, V 1.45, A 1.99, F 2.17, I 1.27, G 2.33, K 1.96, P 2.34, M 1.75, H 2.34, D 1.83, N 1.74, Q 2.09, S 2.41, L 1.97, C 1.83, R 1.56
A4: W 2.41, T 2.24, C 2.2, P 2.98, M 2.65, F 3.19, G 3.08, S 3.9, L 2.82, V 1.82, Q 2.18, K 3.06, Y 2.88, H 2.42, I 2.24, N 3.77, D 3.9, E 2.87, R 3.33
F3: V 4.42, H 4.03, E 4.57, N 4.21, M 4.02, C 3.74, W 2.97, A 3.78, S 4.07, Q 4.16, R 3.6, P 4.25, G 4.63, L 3.48, D 4.48, K 4.63, Y 2.28, I 3.86, T 3.99
E10: D 1.9, W 1.21, A 1.97, N 1.41, L 1.9, V 1.73, C 1.46, R 1.95, P 1.63, Y 1.97, S 2.07, M 1.69, K 2.59, Q 1.68, I 2.07, G 2.04, H 1.81, F 1.22, T 1.84
H19: F 1.95, V 1.89, P 2.72, Y 1.88, W 1.53, R 2.19, S 2.11, D 2.07, M 2.05, A 2.11, G 1.88, L 2.12, Q 2.66, I 1.83, K 1.99, T 1.81, E 2.72, C 2.03
T8: W 1.84, N 2.17, R 1.92, P 1.75, C 2.02, G 1.86, A 2.11, I 2.49, F 2.3, L 1.82, E 2.78, H 1.74, D 2.01, Y 2.05, M 2.21, S 1.92, V 1.98, K 2.39
K9: W 2.34, P 2.15, A 1.71, N 2.39, Q 2.11, C 2.44, M 1.77, S 2.88, R 1.7, T 1.37, V 2.24, E 2.21, Y 1.99, L 1.47, D 1.82, H 2.06, G 2.04, I 2.56, F 2.14
K14: Y 2.44, H 2.74, T 2.31, S 1.97, V 2.2, C 1.89, G 2.48, I 2.66, N 2.25, W 1.96, P 1.86, D 2.32, A 2.34, M 2.01, L 1.78, E 2.53, R 1.97, F 1.8, Q 1.56
L18: H 1.82, W 1.78, Q 2.53, R 2.75, M 3.06, E 2.43, I 2.35, C 2.9, T 3.79, Y 1.36, P 1.89, N 2.01, G 2.02, F 1.73, S 2.51, A 3.07, K 2.6, D 3.17, V 1.93
V15: M 2.87, P 2.33, N 2.27, W 1.93, R 1.95, G 2.55, T 2.47, F 2.46, D 2.92, L 2.69, A 2.38, E 2.23, I 2.75, C 2.24, S 2.44, Y 1.99, Q 2.54, K 2.19, H 2.38
L11: V 2.25, T 2.21, M 1.83, C 2.18, N 1.65, W 1.99, K 2.53, F 2.48, S 1.72, A 1.54, H 2.29, R 1.92, G 2.89, I 2.46, Q 2.25, D 2.53, E 1.97, P 1.87, Y 2.05
I16: F 1.77, D 3.22, Y 2.43, E 2.95, L 2.01, S 2.11, V 2.71, W 2.13, H 2.09, P 2.76, A 2.46, R 1.81, T 2.27, Q 2.12, G 1.98, N 2.42, M 2.1, C 2.14, K 2.1
K20: C 2.09, M 1.81, F 1.55, P 2.64, H 2.44, D 1.96, A 2.29, G 2.22, I 2.12, L 2.81, Q 1.29, N 2.57, E 2.84
D13: K 1.86, H 1.89, M 1.9, E 2.8, P 1.78, L 2.2, T 1.67, V 1, Q 3.39, Y 1.95, A 1.82, I 2.9, C 2.65, F 1.52, R 2.77, S 2.14, N 2.79, G 3.4
H7: W 1.6, G 2.42, L 1.62, M 2.3, A 2.83, C 1.47, T 1.91, Q 2.28, F 1.73, N 2.16, E 1.96, R 2.11, S 1.93, K 1.88, P 2.1, V 1.85, I 2.09, Y 2.07, D 2.96
